Source: patent publication US20080261241A1, “Targeted ubiquitination of proteins and screening methods using a new class of ubiquitin ligase proteins” (INSTITUT PASTEUR, priority 2007, published 2008)
Peptide text beside a SMILES is read from it. * marks the point of attachment. Cbz = O=C(OCc1ccccc1)*

Experiments:
proteasome = experiment: Proteasome inhibition: Ste7 disappearance in MG132-permeable erg6 mutant; type: cell-based, Saccharomyces cerevisiae; conditions: MG132 100 μM, 2 h
Experimental: To test if the IpaH-mediated disappearance of Ste7 required proteasome function, a yeast strain carrying the cim5-1 allele encoding a component of the 26-S proteasome that is functional at 25° C. but not at 37° C. (Ghislain et al., 1993) was used. […] (FIG. 3A). […] Thus, the disappearance of Ste7 promoted by IpaH9.8 is proteasome-dependent.
Standard media and techniques were used for transformation, maintenance, and growth of yeast (Guthrie C, 1991). Halo assays were performed as described (Hoffman et al., 2002) using disks impregnated with 15 μg of α-factor. erg6 ? yeast were transformed with plasmids encoding IpaH9.8 or IpaH9.8-C337A and grown in selective media containing 1% raffinose to mid log phase. Following addition of MG132 (100 μM) and galactose (2%), cultures were incubated for 2 h and cell extracts were prepared as described (Wang et al., 2003). β-Galactosidase assays were performed as described (Guarente, 1983).

[1] = target: His-tagged UbcH5B, P62837
His-tagged UbcH5B, P62837, sequence (P62837 whole entry, looked up): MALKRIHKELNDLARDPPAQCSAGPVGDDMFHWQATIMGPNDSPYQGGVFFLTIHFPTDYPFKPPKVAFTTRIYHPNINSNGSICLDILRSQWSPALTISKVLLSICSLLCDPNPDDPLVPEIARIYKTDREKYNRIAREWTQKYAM

sst2Δ cells = experiment: Growth of sst2Δ yeast in the presence of pheromone; type: cell-based, Saccharomyces cerevisiae; conditions: galactose-induced production, α-factor plates

## CC(C)C[C@@H](C=O)NC(=O)[C@H](CC(C)C)NC(=O)[C@H](CC(C)C)NC(=O)OCc1ccccc1 [MG132] (Cbz-Leu-Leu-Leu-aldehyde)
proteasome
  disappearance of Ste7 provoked by IpaH9.8: prevented the disappearance of Ste7

B1: GST-SspH1 (protein)
chain: EFMLPINNNFSLPQNSFYNTISGTYADYFSAWDKWEKQALPGEERDEAVSRLKECLINNSDELRLDRLNLSSLPDNLPAQITLLNVSYNQLTNLPELPVTLKKLYSASNKLSELPVLPPALESLQVQHNELENLPALPDSLLTMNISYNEIVSLPSLPQALKNLRATRNFLTELPAFSEGNNPVVREYFFDRNQISHIPESILNLRNECSIHISDNPLSSHALQALQRLTSSPDYHGPRIYFSMSDGQQNTLHRPLADAVTAWFPENKQSDVSQIWHAFEHEEHANTFSAFLDRLSDTVSARNTSGFREQVAAWLEKLSASAELRQQSFAVAADATESCEDRVALTWNNLRKTLLVHQASEGLFDNDTGALLSLGREMFRLEILEDIARDKVRTLHFVDEIEVYLAFQTMLAEKLQLSTAVKEMRFYGVSGVTANDLRTAEAMVRSREENEFTDWFSLWGPWHAVLKRTEADRWAQAEEQKYEMLENEYPQRVADRLKASGLSGDADAEREAGAQVMRETEQQIYRQLTDEVLALRLFENGSQLHHS
[1]
  removal of ubiquitin from ubiquitinated UbcH5B: SspH1 was endowed with the activities (i) to remove ubiquitin from ubiquitinated UbcH5B

B2: GST-IpaH9.8 (protein)
chain: MLPINNNFSLPQNSFYNTISGTYADYFSAWDKWEKQALPGEERDEAVSRLKECLINNSDELRLDRLNLSSLPDNLPAQITLLNVSYNQLTNLPELPVTLKKLYSASNKLSELPVLPPALESLQVQHNELENLPALPDSLLTMNISYNEIVSLPSLPQALKNLRATRNFLTELPAFSEGNNPVVREYFFDRNQISHIPESILNLRNECSIHISDNPLSSHALQALQRLTSSPDYHGPRIYFSMSDGQQNTLHRPLADAVTAWFPENKQSDVSQIWHAFEHEEHANTFSAFLDRLSDTVSARNTSGFREQVAAWLEKLSASAELRQQSFAVAADATESCEDRVALTWNNLRKTLLVHQASEGLFDNDTGALLSLGREMFRLEILEDIARDKVRTLHFVDEIEVYLAFQTMLAEKLQLSTAVKEMRFYGVSGVTANDLRTAEAMVRSREENEFTDWFSLWGPWHAVLKRTEADRWAQAEEQKYEMLENEYPQRVADRLKASGLSGDADAEREAGAQVMRETEQQIYRQLTDEVLALRLSENGSQLHHS
[1]
  removal of ubiquitin from ubiquitinated UbcH5B, immunoblot with streptavidin-peroxidase: after ubiquitination of UbcH5B, addition of GST-IpaH9.8 to the reaction mixture promoted the removal of ubiquitin from UbcH5B

B3: IpaH7.8: another IpaH family member from Shigella (protein, UniProt P18014 1-565, looked up)
E3 ubiquitin-protein ligase …: MFSVNNTHSSVSCSPSINSNSTSNEHYLRILTEWEKNSSPGEERGIAFNRLSQCFQNQEAVLNLSDLNLTSLPELPKHISALIVENNKLTSLPKLPAFLKELNADNNRLSVIPELPESLTTLSVRSNQLENLPVLPNHLTSLFVENNRLYNLPALPEKLKFLHVYYNRLTTLPDLPDKLEILCAQRNNLVTFPQFSDRNNIRQKEYYFHFNQITTLPESFSQLDSSYRINISGNPLSTRVLQSLQRLTSSPDYHGPQIYFSMSDGQQNTLHRPLADAVTAWFPENKQSDVSQIWHAFEHEEHANTFSAFLDRLSDTVSARNTSGFREQVAAWLEKLSASAELRQQSFAVAADATESCEDRVALTWNNLRKTLLVHQASEGLFDNDTGALLSLGREMFRLEILEDIARDKVRTLHFVDEIEVYLAFQTMLAEKLQLSTAVKEMRFYGVSGVTANDLRTAEAMVRSREENEFTDWFSLWGPWHAVLKRTEADRWAQAEEQKYEMLENEYSQRVADRLKASGLSGDADAEREAGAQVMRETEQQIYRQLTDEVLALRLSENGSRLHHS
sst2Δ cells
  growth of sst2Δ cells in the presence of pheromone: rescued the pheromone-induced growth arrest of sst2Δ cells
